Measurements taken from patent EP3443010B1 (Ose Immunotherapeutics, dated 2024).
Residue numbers refer to the chain shown, from its start. “And” between values parts separate entries of the source, which are not always exact repeats. Equal values may be shown once. Blank lines part the entries; values can stand above or below the binder they belong to.

Key:
[1] = biological target: T1, SIRPg on peripheral human CD3+ T cells (human, UniProt Q9P1W8 29-387); test: flow cytometry on human CD3+ T cells, percent positive cells
T1 construct: whole, on cells; also called T cells that are known to express SIRPγ; human T cells

[2] = biological target: T2, Recombinant hSIRPb-His (Antibodies-online, reference ABIN3077231) (human, UniProt Q5TFQ8 30-371); test: Blitz (BLI), SIRPb-His on Ni-NTA biosensor, antibody at 20 ug/mL
T2 construct: also called human SIRPb recombinant protein (Blitz); not shown: His tag (histidine tail)

[3] = biological target: T3, Recombinant hSIRPg-His (Sino Biologicals, reference 11828-H08H) (human, UniProt Q9P1W8 29-360); test: Blitz (BLI), SIRPg-His on Ni-NTA biosensor, antibody at 20 ug/mL
T3 construct: also called human SIRPg recombinant protein; not shown: His tag (histidine tail)

[4] = biological target: T4, recombinant hSIRPa (Sino Biologicals, reference 10975-H08H) (human, UniProt P78324 31-370); test: ELISA, hSIRPa (Sino 10975-H08H) coated at 0.5 ug/ml, anti-mouse Fc detection
T4 construct: A different catalogue item from m21; also called SIRPa-His (ELISA with the mouse antibodies)
T4 sequence (P78324 other isoform, or with tags, fused parts or gaps H08H H08H): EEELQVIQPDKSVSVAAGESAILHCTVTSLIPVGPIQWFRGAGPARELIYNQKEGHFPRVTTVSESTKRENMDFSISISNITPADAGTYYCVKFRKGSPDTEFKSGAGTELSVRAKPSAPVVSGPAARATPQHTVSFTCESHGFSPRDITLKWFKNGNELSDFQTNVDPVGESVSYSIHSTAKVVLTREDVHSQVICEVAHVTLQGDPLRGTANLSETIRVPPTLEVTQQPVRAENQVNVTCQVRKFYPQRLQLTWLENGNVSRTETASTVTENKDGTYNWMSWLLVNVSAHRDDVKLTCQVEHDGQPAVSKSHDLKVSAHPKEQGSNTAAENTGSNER

T2 sequence (Q5TFQ8 30-371): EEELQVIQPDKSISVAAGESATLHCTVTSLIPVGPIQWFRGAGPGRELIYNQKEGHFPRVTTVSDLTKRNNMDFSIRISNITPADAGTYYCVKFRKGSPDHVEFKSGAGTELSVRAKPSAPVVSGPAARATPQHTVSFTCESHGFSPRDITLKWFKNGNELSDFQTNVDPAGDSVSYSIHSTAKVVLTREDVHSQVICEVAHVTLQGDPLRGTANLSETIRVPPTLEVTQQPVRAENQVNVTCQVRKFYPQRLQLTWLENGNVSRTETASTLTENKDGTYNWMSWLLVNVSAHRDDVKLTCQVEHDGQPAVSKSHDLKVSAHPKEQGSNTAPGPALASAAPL
T1 sequence (Q9P1W8 29-387): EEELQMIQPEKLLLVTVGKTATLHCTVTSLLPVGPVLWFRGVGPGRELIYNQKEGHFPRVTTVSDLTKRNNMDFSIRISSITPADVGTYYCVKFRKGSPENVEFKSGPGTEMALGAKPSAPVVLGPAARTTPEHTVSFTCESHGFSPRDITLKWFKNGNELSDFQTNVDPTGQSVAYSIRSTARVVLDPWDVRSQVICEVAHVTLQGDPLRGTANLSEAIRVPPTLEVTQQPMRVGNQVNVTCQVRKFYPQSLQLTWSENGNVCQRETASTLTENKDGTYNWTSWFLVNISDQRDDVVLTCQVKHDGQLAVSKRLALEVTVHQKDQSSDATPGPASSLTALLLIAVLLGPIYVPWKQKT
T3 sequence (Q9P1W8 29-360 limits assumed): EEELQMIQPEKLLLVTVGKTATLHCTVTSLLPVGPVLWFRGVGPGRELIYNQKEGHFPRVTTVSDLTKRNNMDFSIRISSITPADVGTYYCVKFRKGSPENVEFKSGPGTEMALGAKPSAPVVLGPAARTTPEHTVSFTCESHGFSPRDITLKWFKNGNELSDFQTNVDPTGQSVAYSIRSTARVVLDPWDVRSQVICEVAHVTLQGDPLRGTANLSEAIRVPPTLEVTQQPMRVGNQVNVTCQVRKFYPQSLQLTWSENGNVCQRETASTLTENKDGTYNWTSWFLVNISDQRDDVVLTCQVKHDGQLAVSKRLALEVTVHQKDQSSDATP

- binding result [1]: no binding (tested: 10 micrograms/ml)
- binding result [2]: binds
B1: chimeric mouse/human 18D5 antibody (antibody, human IgG4 S228P, kappa)
heavy: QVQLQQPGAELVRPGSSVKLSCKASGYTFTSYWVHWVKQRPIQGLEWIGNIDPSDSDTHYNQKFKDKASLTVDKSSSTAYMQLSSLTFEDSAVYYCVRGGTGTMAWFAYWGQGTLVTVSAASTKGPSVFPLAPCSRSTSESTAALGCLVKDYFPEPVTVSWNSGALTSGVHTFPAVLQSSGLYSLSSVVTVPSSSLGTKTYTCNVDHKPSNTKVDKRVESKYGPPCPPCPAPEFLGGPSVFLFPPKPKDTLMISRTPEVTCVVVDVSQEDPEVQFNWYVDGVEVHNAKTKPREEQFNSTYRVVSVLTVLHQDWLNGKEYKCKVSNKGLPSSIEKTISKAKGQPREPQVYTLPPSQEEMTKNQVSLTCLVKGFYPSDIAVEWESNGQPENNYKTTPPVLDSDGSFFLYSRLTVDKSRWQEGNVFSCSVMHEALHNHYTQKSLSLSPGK
light: DVVMTQTPLSLPVSLGDQASISCRSSQSLVHSYGNTYLYWYLQKPGQSPKLLIYRVSNRFSGVPDRFSGSGSGTDFTLKISRVEAEDLGVYFCFQGTHVPYTFGSGTKLEIKRTVAAPSVFIFPPSDEQLKSGTASVVCLLNNFYPREAKVQWKVDNALQSGNSQESVTEQDSKDSTYSLSSTLTLSKADYEKHKVYACEVTHQGLSSPVTKSFNRGEC
notes: also called chimeric 18D5; the chimeric antibody

- binding result [2]: binds
B2: HFLA (antibody, human IgG4 S228P, kappa, V domains shown)
VH: EVQLVQSGAEVKKPGESLRISCKASGYSFTSYWVHWVRQMPGKGLEWMGNIDPSDSDTHYSPSFQGHVTLSVDKSISTAYLQLSSLKASDTAMYYCVRGGTGTMAYFAYWGQGTLVTVSS
VL: DVVMTQSPLSLPVTLGQPASISCRSSQSLVHSYGNTYLYWYQQRPGQSPRLLIYRVSNRFSGVPDRFSGSGSGTDFTLKISRVEAEDVGVYFCFQGTHVPYTFGGGTKVEIKR
notes: also called humanized 18D5 variant HFLA

- binding result [2]: binds
- Kd [3]: 104 nM
B3: HFLB (antibody, human IgG4 S228P, kappa, V domains shown)
VH: B2 VH
VL: B2 VL with Y41F, F92Y
notes: also called humanized 18D5 variant HFLB

- binding result [2]: binds
B4: HEFLA (antibody, human IgG4 S228P, kappa, V domains shown)
VH: B2 VH with M104L
VL: B2 VL
notes: also called humanized 18D5 variant HEFLA

- binding result [2]: binds
B5: HEFLB (antibody, human IgG4 S228P, kappa, V domains shown)
VH: B2 VH with M104L
VL: B2 VL with Y41F, F92Y
notes: also called humanized 18D5 variant HEFLB; anti-SIRPa HEFLB

- EC50 [4]: 0.06 nM and 0.009 µg/mL
B6: mouse antibody 18D5 (antibody, mouse IgG2b, kappa)
heavy: QVQLQQPGAELVRPGSSVKLSCKASGYTFTSYWVHWVKQRPIQGLEWIGNIDPSDSDTHYNQKFKDKASLTVDKSSSTAYMQLSSLTFEDSAVYYCVRGGTGTMAWFAYWGQGTLVTVSAAKTTPPSVYPLAPGCGDTTGSSVTLGCLVKGYFPESVTVTWNSGSLSSSVHTFPALLQSGLYTMSSSVTVPSSTWPSQTVTCSVAHPASSTTVDKKLEPSGPISTINPCPPCKECHKCPAPNLEGGPSVFIFPPNIKDVLMISLTPKVTCVVVDVSEDDPDVQISWFVNNVEVHTAQTQTHREDYNSTIRVVSTLPIQHQDWMSGKEFKCKVNNKDLPSPIERTISKIKGLVRAPQVYILPPPAEQLSRKDVSLTCLVVGFNPGDISVEWTSNGHTEENYKDTAPVLDSDGSYFIYSKLNMKTSKWEKTDSFSCNVRHEGLKNYYLKKTISRSPGK
light: DVVMTQTPLSLPVSLGDQASISCRSSQSLVHSYGNTYLYWYLQKPGQSPKLLIYRVSNRFSGVPDRFSGSGSGTDFTLKISRVEAEDLGVYFCFQGTHVPYTFGSGTKLEIKRADAAPTVSIFPPSSEQLTSGGASVVCFLNNFYPKDINVKWKIDGSERQNGVLNSWTDQDSKDSTYSMSSTLTLTKDEYERHNSYTCEATHKTSTSPIVKSFNRNEC
notes: also called m18D5; m18D5 clone
